# Target: thrombin (UniProt P00734;P00734 328-363;364-622)
# Test: fluorescence recovery (FAM-TBA released from GO/capture DNA); FAM-TBA with capture DNA on PEG-blocked GO; thrombin 0.0025-15 nM; sensor LOD is not a Kd; GO 5 ug/mL, 10 nM FAM-DNA, 30 min incubation (covalent sensor); PBS listed in materials, PBS vs water compared in Fig. S6; pH, salt and temperature not in the m
binder,measurement,value
AAAAGTCCGTGGTAGGGCAGGTTGGGGTGACT (ssDNA) [Thrombin binding aptamer (TBA)],binding result,binds

# From article PMC9502102, “Thrombin Determination Using Graphene Oxide Sensors with Co-Assisted Amplification”
